Values of other authors as cited in article PMC5742237.
Like-named read-outs stand apart in the source and are kept apart here.

Key:
[1] = target: Transhydrogenase domain I dimer domain I (Rhodospirillum rubrum) (UniProt Q2RSB2)
[2] = target: Transhydrogenase domain I dimer domain I (Rhodospirillum rubrum) (UniProt Q2RSB2); remark: listed apart in the source

UniProt Q2RSB2, sequence (Q2RSB2 whole entry, the tested form may be a part): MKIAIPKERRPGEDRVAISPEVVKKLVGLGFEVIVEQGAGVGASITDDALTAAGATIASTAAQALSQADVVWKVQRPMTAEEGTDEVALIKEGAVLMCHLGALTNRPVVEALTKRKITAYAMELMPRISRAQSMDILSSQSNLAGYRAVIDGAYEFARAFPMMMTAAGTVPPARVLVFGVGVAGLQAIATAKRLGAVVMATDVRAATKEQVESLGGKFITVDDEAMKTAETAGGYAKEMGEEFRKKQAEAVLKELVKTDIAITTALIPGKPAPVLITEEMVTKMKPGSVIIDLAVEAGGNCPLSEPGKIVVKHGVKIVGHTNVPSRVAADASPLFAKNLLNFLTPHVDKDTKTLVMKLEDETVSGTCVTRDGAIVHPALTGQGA

Substance | Kd [1] | Kd [2]
Transhydrogenase domain III domain III (from UniProt Q2RSB4) | < 60 nM | 
Transhydrogenase domain III (second) domain III (from UniProt Q2RSB4) |  | 10 µM
